Assay results: PMC11109247

Assays:
[1] = molecular target: ephrinB2-Fc chimaera (human ephrin-B2 residues 1-229, IEGRMD linker, human IgG1 residues 100-330) (human) (UniProt P52799); assay: SDS-PAGE without reduction and boiling
[2] = molecular target: ephrinB3-Fc chimaera (human ephrin-B3 residues 28-224, IEGRMD linker, human IgG1 residues 100-330) (human) (UniProt Q15768); assay: SDS-PAGE without reduction and boiling
[3] = molecular target: soluble NiVMY G ectodomain used for structural determination (residues 72-602, His tag) (Nipah virus Malaysia (NiVMY)) (UniProt Q9IH62); assay: negative-stain electron microscopy; soluble NiVMY G ectodomain alone

soluble NiVMY G ectodomain used for structural determination (residues 72-602, His tag), sequence (Q9IH62 72-602): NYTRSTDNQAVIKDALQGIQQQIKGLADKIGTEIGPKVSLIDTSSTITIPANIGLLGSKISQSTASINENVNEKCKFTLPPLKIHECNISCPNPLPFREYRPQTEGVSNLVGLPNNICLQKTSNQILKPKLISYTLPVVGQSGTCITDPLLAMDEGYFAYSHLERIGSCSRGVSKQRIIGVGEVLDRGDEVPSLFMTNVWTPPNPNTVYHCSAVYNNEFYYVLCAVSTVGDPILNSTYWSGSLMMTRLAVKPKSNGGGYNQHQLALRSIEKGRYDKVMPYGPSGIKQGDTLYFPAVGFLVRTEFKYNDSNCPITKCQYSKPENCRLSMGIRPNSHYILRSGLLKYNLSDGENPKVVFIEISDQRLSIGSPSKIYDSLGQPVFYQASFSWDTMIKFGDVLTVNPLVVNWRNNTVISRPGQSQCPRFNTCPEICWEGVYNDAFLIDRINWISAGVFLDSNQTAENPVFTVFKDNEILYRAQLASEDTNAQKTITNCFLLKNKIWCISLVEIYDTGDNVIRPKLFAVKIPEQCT
ephrinB2-Fc chimaera (human ephrin-B2 residues 1-229, IEGRMD linker, human IgG1 residues 100-330), sequence (P52799 28-229): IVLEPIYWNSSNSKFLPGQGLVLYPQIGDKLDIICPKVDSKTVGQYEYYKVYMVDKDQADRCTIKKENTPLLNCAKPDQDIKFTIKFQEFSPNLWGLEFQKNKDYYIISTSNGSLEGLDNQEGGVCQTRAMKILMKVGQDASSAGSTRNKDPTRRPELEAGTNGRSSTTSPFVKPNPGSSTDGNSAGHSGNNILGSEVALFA
ephrinB3-Fc chimaera (human ephrin-B3 residues 28-224, IEGRMD linker, human IgG1 residues 100-330), sequence (Q15768 28-224): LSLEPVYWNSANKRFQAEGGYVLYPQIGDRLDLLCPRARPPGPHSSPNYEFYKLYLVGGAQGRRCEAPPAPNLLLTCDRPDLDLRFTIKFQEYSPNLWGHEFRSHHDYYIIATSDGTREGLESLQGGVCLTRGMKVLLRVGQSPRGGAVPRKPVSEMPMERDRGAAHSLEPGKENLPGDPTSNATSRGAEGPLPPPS

ephrinB2-Fc chimaera (human ephrin-B2 residues 1-229, IEGRMD linker, human IgG1 residues 100-330) (from UniProt P52799 28-229) (Fc fusion)
stoichiometry N [1]: 2

ephrinB3-Fc chimaera (human ephrin-B3 residues 28-224, IEGRMD linker, human IgG1 residues 100-330) (from UniProt Q15768 28-224) (Fc fusion)
stoichiometry N [2]: 2

soluble NiVMY G ectodomain used for structural determination (residues 72-602, His tag) (from UniProt Q9IH62 72-602) (domain or fragment)
stoichiometry N [3]: 4
